Values joined by “and” are separate entries in the source; they are usually repeats but may differ in a detail not shown here. Identical values can stand only once. Positions of bridges follow the written chain, without caps; N, C: chain ends. Chains are numbered I, II in the order given. No end group written: not given here.
Key:
human IGF-1 receptor [1] = target: T1, human IGF-1 receptor (human, UniProt P08069 31-1367); experiment: SPA competition vs 125I-IGF-1, human IGF-1R membranes (Example 3)
T1 construct: whole, on cells
Description: (§1) Non-specifically bound (NSB) radioactivity was measured in the wells with a four-fold concentration excess of “cold” native ligand than the highest concentration in test samples. Total bound radioactivity was detected in the wells with no competitor. Percent specific binding was calculated as following: % Specific Binding=(Bound-NSB/Total bound-NSB)×100.

human insulin receptor [2] = target: T2, human insulin receptor (human, UniProt P06213 28-1382); experiment: cell-based or functional assay
T2 construct: whole, on cells

human IGF-1 receptor [3] = target: T1, human IGF-1 receptor; experiment: cell-based or functional assay
human insulin receptor [4] = target: T2, human insulin receptor; experiment: SPA competition vs 125I-insulin, human IR membranes (Example 3)
Description: as §1

[5] = target: human insulin receptor (human) (UniProt P06213); experiment: cell-based or functional assay
[6] = target: insulin receptor, A subtype (UniProt P06213); experiment: cell-based or functional assay
[7] = target: insulin receptor, B subtype (UniProt P06213); experiment: cell-based or functional assay
[8] = target: human insulin receptor (human) (UniProt P06213); experiment: SPA competition vs 125I-insulin, human IR membranes (Example 3)
human insulin receptor [9] = target: T2, human insulin receptor; experiment: in vitro insulin receptor binding assay after 95 hr in 20% plasma/PBS at 37 C, relative to native insulin
human insulin receptor [10] = target: T2, human insulin receptor; experiment: in vitro insulin receptor binding assay after 0 hr in 20% plasma/PBS at 37 C, relative to native insulin
human insulin receptor [11] = target: T2, human insulin receptor; experiment: in vitro insulin receptor binding assay after 9 hr in 20% plasma/PBS at 37 C, relative to native insulin

| Molecule | % IGF-1 (in test) (human IGF-1 receptor [1]) [%] | % native IGF-1 activity (0.55 nM) (human IGF-1 receptor [1]) [%] | IC50 (human IGF-1 receptor [1]) | IC50 (human insulin receptor [4]) | also measured |
| --- | --- | --- | --- | --- | --- |
| IGF-1 A:B(E10 Y16L17)-E31E32B-COOH (peptide) | 3 | 3.1 | 17.5 nM |  | % Insulin, total phosphorylation, Insulin Receptor (human insulin receptor [2]): 18.1% and 31.7% |
| IGF-1 A (H8 A9 N21):B (H5D10Y16L17) DPI A-COOH (peptide) | 12.9 | 13.6 | 4.03 nM | 0.05 nM and 0.09 nM | % Insulin, total phosphorylation, Insulin Receptor (human insulin receptor [2]): 840% and 1080%; % IGF, total phosphorylation, IGF-1 Receptor (human IGF-1 receptor [3]): 181%; % insulin (in test) (human insulin receptor [4]): 1580% and 1670% |
| IGF-1 A (H8 A9 N21):B (H5D10Y16L17 A22) DPI A-COOH (peptide) |  |  |  |  | % Insulin, total phosphorylation, Insulin Receptor [5]: 360% and 614% |
| B^1PEG-Aoa2(H5, H10,Y16,L17)25a: A^1(pNH2-F19, N18, N21), N-terminal 20 kDa PEG, no dipeptide at A19 |  |  |  |  | % (of insulin), in vitro phosphorylation assay, IR-A [6]: 18%; % (of insulin), in vitro phosphorylation assay, IR-B [7]: 6.5% |
| In A:IGF-1 B(YL) (peptide) |  |  |  | 82.6 nM and 107 nM | % insulin (in test) (human insulin receptor [4]): 0.9% and 0.7%; % native insulin activity (0.6 nM) (human insulin receptor [4]): 0.7% and 0.6% |
| IGF-1 A:B (H5D10Y16L17) (S═O)DPI (peptide) |  |  |  |  | % insulin (in test) [8]: 316%; IC50 [8]: 0.25 nM |
| IGF1 A:B(Y^B16L^B17)(p-NH2-F)^A19amide (peptide) |  |  |  | 1.08 nM | % of Insulin Activity (human insulin receptor [4]): 22% |
| IGF-1 A:B(D10Y16L17) DPI A-COOH (peptide) | 7.7 | 8.1 | 6.79 nM | 0.26 nM and 0.2 nM and 0.42 nM | % Insulin, total phosphorylation, Insulin Receptor (human insulin receptor [2]): 1580%; % IGF, total phosphorylation, IGF-1 Receptor (human IGF-1 receptor [3]): 112%; % insulin (in test) (human insulin receptor [4]): 301% and 380% and 174%; % native insulin activity (0.6 nM) (human insulin receptor [4]): 231% and 300% and 144% |
| B^1Aoa2(H5, H10,Y16,L17)25a: A^1(pNH2-F19, N18, N21) (peptide) |  |  |  |  | % (of insulin), in vitro phosphorylation assay, IR-A [6]: 81%; % (of insulin), in vitro phosphorylation assay, IR-B [7]: 48% |
| B^1PEGAoa2(H5, H10,Y16,L17)25a: A^1(dLys(rE-C14),Nleu-aF19, N18, N21) (peptide) |  |  |  |  | % (of insulin), in vitro phosphorylation assay, IR-A, prodrug after 78 h in PBS at 37 C [6]: 8.3%; % (of insulin), in vitro phosphorylation assay, IR-A, prodrug at 0 h [6]: 1.1%; % (of insulin), in vitro phosphorylation assay, IR-B, prodrug after 78 h in PBS at 37 C [7]: 6.3%; % (of insulin), in vitro phosphorylation assay, IR-B, prodrug at 0 h [7]: 1.2% |
| IGF-1 A:B (H5D10Y16L17) DPI (peptide) |  |  |  |  | % insulin (in test) [8]: 479%; IC50 [8]: 0.16 nM |
| IGF1(Y^B16L^B17)(AlaPro)^A-1,0 (peptide) |  |  |  | 1.93 nM | % of Insulin Activity (human insulin receptor [4]): 37.1% |
| MIU-30a: B^1(Y16,L17,Y25)29a: A^1(dLys(Ac),Sar-aF19) (peptide) |  |  |  |  | % Activity of Insulin (human insulin receptor [9]): 115%; % Activity of Insulin (human insulin receptor [10]): 34.4%; % Activity of Insulin (human insulin receptor [11]): 100%; % Activity of Insulin, in vitro phosphorylation assay, after 1 hr in 20% plasma (human insulin receptor [2]): 23%; % Activity of Insulin, in vitro phosphorylation assay, after 3 hr in 20% plasma (human insulin receptor [2]): 26.8%; % Activity of Insulin, in vitro phosphorylation assay, after 6 hr in 20% plasma (human insulin receptor [2]): 32.5%; % Activity of Insulin, in vitro phosphorylation assay, after 9 hr in 20% plasma (human insulin receptor [2]): 41.1%; % Activity of Insulin, in vitro phosphorylation assay, after 10.5 hr in 20% plasma (human insulin receptor [2]): 43.2% |
| IGF-1 A:B (E10Y16L17) DPI (disulfide I:7-II:6 (inferred); not fully specified (bridges); cysteine pairing not given here, A chain, then B chain; DPI as in m25) A chain: GIVDECCFRSCDLRRLEMYCA-NH2 B chain: GPETLCGAELVDALYLVCGDRGFY-NH2 | 3.3 | 2.4 | 22.9 nM |  |  |
| IGF-1 A:B (H5D10Y16L17) DPI (disulfide I:7-II:6 (inferred); not fully specified (bridges); ends not checked; also: C-terminal amide (chain not given here)) chain 1: GIVDECCFRSCDLRRLEMYCA-NH2 chain 2: GPEHLCGADLVDALYLVCGDRGFY-NH2 | 11.2 | 11.8 | 4.66 nM |  |  |
| IGF-1 A (H8 A9 N21):B (H5D10Y16L17 A22) DPI A-COOH (ends and bridges not checked) chain 1: GIVDECCHASCDLRRLEMYCN-OH chain 2: GPEHLCGADLVDALYLVCGDAGFY-NH2 | 2.3 | 2.4 | 22.8 nM |  |  |
| IGF-1 A:B(E10Y16L17) (disulfide I:7-II:6 (inferred); not fully specified (bridges); cysteine pairing not given here, A chain, then B chain) A chain: GIVDECCFRSCDLRRLEMYCA-NH2 B chain: GPETLCGAELVDALYLVCGDRGFYFNKPT-NH2 |  |  | 7.85 nM and 12.2 nM | 0.66 nM and 0.51 nM |  |
| IGF-1 A:IGF-1 B(1-8)-In (9-17)-IGF-1 B (18-30) (disulfide I:7-II:6 (inferred); not fully specified (bridges); ends not checked; also: C-terminal amide (chain not given here), my derivation) chain 1: GIVDECCFRSCDLRRLEMYCA-NH2 chain 2: GPETLCGSHLVEALYLVCGDRGFYFNKPT-NH2 | 0.3 | 0.4 | 131 nM | 1.59 nM | % insulin (in test) (human insulin receptor [4]): 19.1%; % native insulin activity (0.6 nM) (human insulin receptor [4]): 37.7% |
| IGF-1 A:In (1-17)-IGF-1 B (18-30) (disulfide I:7-II:7 (inferred); not fully specified (bridges); ends not checked; also: C-terminal amide (chain not given here), my derivation) chain 1: GIVDECCFRSCDLRRLEMYCA-NH2 chain 2: FVNQHLCGSHLVEALYLVCGDRGFYFNKPT-NH2 | 0.9 | 0.9 | 62.5 nM | 2.77 nM and 2.67 nM and 2.48 nM |  |
| IGF-1 A:In B(1-5)-IGF-1 B(YL) (6-30) (disulfide I:6-I:11, I:20-II:19, I:7-II:7; also: disulfides as in insulin, my derivation) A chain: GIVDECCFRSCDLRRLEMYCA-NH2 B chain: FVNQHLCGAELVDALYLVCGDRGFYFNKPT-NH2 | 3.6 | 2 | 27.5 nM |  |  |
| IGF1 (Y^B16L^B17) (disulfide I:7-II:6 (inferred); not fully specified (C-terminus, bridges); cysteine pairing not given here, A chain, then B chain, two chain heteroduplex; also called IGF1(YL)^B16B17 analog; IGF1 A:B(Y^B16L^B17)) A chain: GIVDECCFRSCDLRRLEMYCA B chain: GPETLCGAELVDALYLVCGDRGFYFNKPT |  |  |  | 0.51 nM |  |
| IGF-1 A:B (disulfide I:7-II:6 (inferred); not fully specified (bridges); ends not checked; also: C-terminal amide (chain not given here), Two chain heteroduplex of the native IGF-1 A and B chains) chain 1: GIVDECCFRSCDLRRLEMYCA-NH2 chain 2: GPETLCGAELVDALQFVCGDRGFYFNKPT-NH2 |  |  |  | 10.4 nM | % insulin (in test) (human insulin receptor [4]): 5.8%; % native insulin activity (0.6 nM) (human insulin receptor [4]): 5.8% |

— patent US20130123171A1 (INDIANA UNIVERSITY RESEARCH AND TECHNOLOGY CORPORA, published 2013)
